From article doi:10.1101/2022.12.04.519012 (bioRxiv, 2022)

Molecular target: DDB1 with N terminal Twin-Strep-FLAG (TSF) tag (human, UniProt Q16531 1-1140)
Assay: cryo-EM structure

Sequence of DDB1 with N terminal Twin-Strep-FLAG (TSF) tag (Q16531 whole entry): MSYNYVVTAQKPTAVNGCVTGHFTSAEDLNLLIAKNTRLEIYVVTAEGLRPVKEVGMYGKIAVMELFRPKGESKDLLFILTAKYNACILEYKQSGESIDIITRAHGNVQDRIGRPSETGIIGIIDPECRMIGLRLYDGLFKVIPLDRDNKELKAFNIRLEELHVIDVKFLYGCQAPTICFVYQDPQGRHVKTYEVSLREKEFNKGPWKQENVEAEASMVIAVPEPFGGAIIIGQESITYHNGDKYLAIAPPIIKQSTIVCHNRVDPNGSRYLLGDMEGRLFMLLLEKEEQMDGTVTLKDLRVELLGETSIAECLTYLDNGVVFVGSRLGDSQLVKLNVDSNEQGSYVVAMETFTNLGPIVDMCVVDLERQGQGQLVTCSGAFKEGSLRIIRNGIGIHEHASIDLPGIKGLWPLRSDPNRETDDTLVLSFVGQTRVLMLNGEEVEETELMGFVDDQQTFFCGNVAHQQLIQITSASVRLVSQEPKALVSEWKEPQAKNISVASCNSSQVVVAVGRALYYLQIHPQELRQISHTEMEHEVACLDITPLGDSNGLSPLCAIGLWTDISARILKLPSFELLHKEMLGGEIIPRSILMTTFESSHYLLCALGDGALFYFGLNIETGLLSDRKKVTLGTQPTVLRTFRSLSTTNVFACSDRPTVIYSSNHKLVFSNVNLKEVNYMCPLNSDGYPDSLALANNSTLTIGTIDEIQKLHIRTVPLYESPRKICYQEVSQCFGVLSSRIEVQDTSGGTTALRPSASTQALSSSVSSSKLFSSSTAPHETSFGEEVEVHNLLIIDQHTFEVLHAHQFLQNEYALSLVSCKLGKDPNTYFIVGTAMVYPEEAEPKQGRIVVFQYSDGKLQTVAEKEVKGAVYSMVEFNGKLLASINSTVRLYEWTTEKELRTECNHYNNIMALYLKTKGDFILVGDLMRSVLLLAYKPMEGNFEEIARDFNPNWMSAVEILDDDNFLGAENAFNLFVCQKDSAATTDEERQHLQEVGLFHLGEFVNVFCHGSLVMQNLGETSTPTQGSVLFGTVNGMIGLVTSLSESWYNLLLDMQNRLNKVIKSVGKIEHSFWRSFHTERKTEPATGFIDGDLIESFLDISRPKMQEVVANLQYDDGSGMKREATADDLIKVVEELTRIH

binding result: binds
B1: AMBRA1^WD40 (residues 1-204 directly fused to residues 853-1044) (domain or fragment)
chain: MKVVPEKNAVRILWGRERGARAMGAQRLLQELVEDKTRWMKWEGKRVELPDSPRSTFLLAFSPDRTLLASTHVNHNIYITEVKTGKCVHSLIGHRRTPWCVTFHPTISGLIASGCLDGEVRIWDLHGGSESWFTDSNNAIASLAFHPTAQLLLIATANEIHFWDWSRREPFAVVKTASEMERVRLVRFDPLGHYLLTAIVNPSNSNIANTTYRLQWWDFTKFDLPEISNASVNVLVQNCKIYNDASCDISADGQLLAAFIPSSQRGFPDEGILAVYSLAPHNLGEMLYTKRFGPNAISVSLSPMGRYVMVGLASRRILLHPSTEHMVAQVFRLQQAHGGETSMRRVFNVLYPMPADQRRHVSINSARWLPEPGLGLAYGTNKGDLVICRPEALNSG
